Measured values taken from patent publication US20240279318A1 (NANJING LEGEND BIOTECH, published 2024).

Experiments:
[1] = molecular target: T1, AFP158/HLA-A*02:01 complex (human); assay: SPR, crude scFv captured;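 further: Peptide–MHC complex flowed at several concentrations over sensorchip-captured scFv, Kd derived from on- and off-rates obtained from the association and dissociation curves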
T1 construct: biotinylated on the BSP by BirA for ELISA and panning; also called biotinylated AFP158/HLA-A*02:01 complex; Bio-AFP158

[2] = molecular target: T1, AFP158/HLA-A*02:01 complex; assay: SPR; vs AS170036 VL1VH1;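 further: crude scFv captured on sensor chip, peptide–HLA complex flowed over at several concentrations, KD estimated from association and dissociation kinetic rates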
Method: The experiment was carried out as follows. The crude scFv protein were captured onto the sensorchip. Different concentrations (320, 160, 40 nM) of AFP158/HLA-A*02:01 complex flowed over the sensorchip surface, and were allowed to bind the antibody fragment for 100 s followed by injection of the running buffer to allow dissociation of the complex. On-rate (kd) and off-rate (kd) were calculated based on association and dissociation curve, and were used to estimate the equilibrium dissociation constant (KD).

| Kd [1] [nM] | Affinity increase [2] [fold] | Binder |
| --- | --- | --- |
| 300 | 0.8 | AS170036 VL1VH1 HF101W (scFv) scFv: QSALTQPRSVSGSPGQSVTISCAGTSSDVGSENYVSWYQQHPGKAPKLMIYQVNKRASGVPDRFSGSKSGNTASLTISGLQAEDEADYYCASYRSSDHNIVFGGGTKLTVLGGGGSGGGGSGGGGSEVQLVESGGGLVQPGGSLRLSCAASGFTFSSYAMSWVRQAPGKGLEWVSTINSGTGSPYYADSVKGRFTISRDNSKNTLYLQMNSLRAEDTAVYYCAKNFWDGSWFLGPPAMDYWGQGTLVTVSSHHHHHH |
| 1100 | 0.2 | AS170036 VL1VH1 HG56I (scFv) scFv: QSALTQPRSVSGSPGQSVTISCAGTSSDVGSENYVSWYQQHPGKAPKLMIYQVNKRASGVPDRFSGSKSGNTASLTISGLQAEDEADYYCASYRSSDHNIVFGGGTKLTVLGGGGSGGGGSGGGGSEVQLVESGGGLVQPGGSLRLSCAASGFTFSSYAMSWVRQAPGKGLEWVSTINSGTISPYYADSVKGRFTISRDNSKNTLYLQMNSLRAEDTAVYYCAKNFFDGSWFLGPPAMDYWGQGTLVTVSSHHHHHH |
| 630 | 0.4 | AS170036 VL1VH1 HF106W (scFv) scFv: QSALTQPRSVSGSPGQSVTISCAGTSSDVGSENYVSWYQQHPGKAPKLMIYQVNKRASGVPDRFSGSKSGNTASLTISGLQAEDEADYYCASYRSSDHNIVFGGGTKLTVLGGGGSGGGGSGGGGSEVQLVESGGGLVQPGGSLRLSCAASGFTFSSYAMSWVRQAPGKGLEWVSTINSGTGSPYYADSVKGRFTISRDNSKNTLYLQMNSLRAEDTAVYYCAKNFFDGSWWLGPPAMDYWGQGTLVTVSSHHHHHH |
| 350 | 0.7 | AS170036 VL1VH1 HG56K (scFv) scFv: QSALTQPRSVSGSPGQSVTISCAGTSSDVGSENYVSWYQQHPGKAPKLMIYQVNKRASGVPDRFSGSKSGNTASLTISGLQAEDEADYYCASYRSSDHNIVFGGGTKLTVLGGGGSGGGGSGGGGSEVQLVESGGGLVQPGGSLRLSCAASGFTFSSYAMSWVRQAPGKGLEWVSTINSGTKSPYYADSVKGRFTISRDNSKNTLYLQMNSLRAEDTAVYYCAKNFFDGSWFLGPPAMDYWGQGTLVTVSSHHHHHH |
| 1600 | 0.1 | AS170036 VL1VH1 HG56P (scFv) scFv: QSALTQPRSVSGSPGQSVTISCAGTSSDVGSENYVSWYQQHPGKAPKLMIYQVNKRASGVPDRFSGSKSGNTASLTISGLQAEDEADYYCASYRSSDHNIVFGGGTKLTVLGGGGSGGGGSGGGGSEVQLVESGGGLVQPGGSLRLSCAASGFTFSSYAMSWVRQAPGKGLEWVSTINSGTPSPYYADSVKGRFTISRDNSKNTLYLQMNSLRAEDTAVYYCAKNFFDGSWFLGPPAMDYWGQGTLVTVSSHHHHHH |
| 300 | 0.8 | AS170036 VL1VH1 HG56R (scFv) scFv: QSALTQPRSVSGSPGQSVTISCAGTSSDVGSENYVSWYQQHPGKAPKLMIYQVNKRASGVPDRFSGSKSGNTASLTISGLQAEDEADYYCASYRSSDHNIVFGGGTKLTVLGGGGSGGGGSGGGGSEVQLVESGGGLVQPGGSLRLSCAASGFTFSSYAMSWVRQAPGKGLEWVSTINSGTRSPYYADSVKGRFTISRDNSKNTLYLQMNSLRAEDTAVYYCAKNFFDGSWFLGPPAMDYWGQGTLVTVSSHHHHHH |
| 240 | 1 | AS170036 VL1VH1 HG56Q (scFv) scFv: QSALTQPRSVSGSPGQSVTISCAGTSSDVGSENYVSWYQQHPGKAPKLMIYQVNKRASGVPDRFSGSKSGNTASLTISGLQAEDEADYYCASYRSSDHNIVFGGGTKLTVLGGGGSGGGGSGGGGSEVQLVESGGGLVQPGGSLRLSCAASGFTFSSYAMSWVRQAPGKGLEWVSTINSGTQSPYYADSVKGRFTISRDNSKNTLYLQMNSLRAEDTAVYYCAKNFFDGSWFLGPPAMDYWGQGTLVTVSSHHHHHH |
| 210 | 1.1 | AS170036 VL1VH1 HF101Y (scFv) scFv: QSALTQPRSVSGSPGQSVTISCAGTSSDVGSENYVSWYQQHPGKAPKLMIYQVNKRASGVPDRFSGSKSGNTASLTISGLQAEDEADYYCASYRSSDHNIVFGGGTKLTVLGGGGSGGGGSGGGGSEVQLVESGGGLVQPGGSLRLSCAASGFTFSSYAMSWVRQAPGKGLEWVSTINSGTGSPYYADSVKGRFTISRDNSKNTLYLQMNSLRAEDTAVYYCAKNFYDGSWFLGPPAMDYWGQGTLVTVSSHHHHHH |
| 130 | 1.7 | AS170036 VL1VH1 HG56M (scFv) scFv: QSALTQPRSVSGSPGQSVTISCAGTSSDVGSENYVSWYQQHPGKAPKLMIYQVNKRASGVPDRFSGSKSGNTASLTISGLQAEDEADYYCASYRSSDHNIVFGGGTKLTVLGGGGSGGGGSGGGGSEVQLVESGGGLVQPGGSLRLSCAASGFTFSSYAMSWVRQAPGKGLEWVSTINSGTMSPYYADSVKGRFTISRDNSKNTLYLQMNSLRAEDTAVYYCAKNFFDGSWFLGPPAMDYWGQGTLVTVSSHHHHHH |
| 240 | 1 | AS170036 VL1VH1 HG56E (scFv) scFv: QSALTQPRSVSGSPGQSVTISCAGTSSDVGSENYVSWYQQHPGKAPKLMIYQVNKRASGVPDRFSGSKSGNTASLTISGLQAEDEADYYCASYRSSDHNIVFGGGTKLTVLGGGGSGGGGSGGGGSEVQLVESGGGLVQPGGSLRLSCAASGFTFSSYAMSWVRQAPGKGLEWVSTINSGTESPYYADSVKGRFTISRDNSKNTLYLQMNSLRAEDTAVYYCAKNFFDGSWFLGPPAMDYWGQGTLVTVSSHHHHHH |
| 160 | 1.5 | AS170036 VL1VH1 HG56S (scFv) scFv: QSALTQPRSVSGSPGQSVTISCAGTSSDVGSENYVSWYQQHPGKAPKLMIYQVNKRASGVPDRFSGSKSGNTASLTISGLQAEDEADYYCASYRSSDHNIVFGGGTKLTVLGGGGSGGGGSGGGGSEVQLVESGGGLVQPGGSLRLSCAASGFTFSSYAMSWVRQAPGKGLEWVSTINSGTSSPYYADSVKGRFTISRDNSKNTLYLQMNSLRAEDTAVYYCAKNFFDGSWFLGPPAMDYWGQGTLVTVSSHHHHHH |
| 290 | 0.8 | AS170036 VL1VH1 HG56L (scFv) scFv: QSALTQPRSVSGSPGQSVTISCAGTSSDVGSENYVSWYQQHPGKAPKLMIYQVNKRASGVPDRFSGSKSGNTASLTISGLQAEDEADYYCASYRSSDHNIVFGGGTKLTVLGGGGSGGGGSGGGGSEVQLVESGGGLVQPGGSLRLSCAASGFTFSSYAMSWVRQAPGKGLEWVSTINSGTLSPYYADSVKGRFTISRDNSKNTLYLQMNSLRAEDTAVYYCAKNFFDGSWFLGPPAMDYWGQGTLVTVSSHHHHHH |
| 150 | 1.5 | AS170036 VL1VH1 HG56H (scFv) scFv: QSALTQPRSVSGSPGQSVTISCAGTSSDVGSENYVSWYQQHPGKAPKLMIYQVNKRASGVPDRFSGSKSGNTASLTISGLQAEDEADYYCASYRSSDHNIVFGGGTKLTVLGGGGSGGGGSGGGGSEVQLVESGGGLVQPGGSLRLSCAASGFTFSSYAMSWVRQAPGKGLEWVSTINSGTHSPYYADSVKGRFTISRDNSKNTLYLQMNSLRAEDTAVYYCAKNFFDGSWFLGPPAMDYWGQGTLVTVSSHHHHHH |
| 230 | 1 | AS170036 VL1VH1 HG56D (scFv) scFv: QSALTQPRSVSGSPGQSVTISCAGTSSDVGSENYVSWYQQHPGKAPKLMIYQVNKRASGVPDRFSGSKSGNTASLTISGLQAEDEADYYCASYRSSDHNIVFGGGTKLTVLGGGGSGGGGSGGGGSEVQLVESGGGLVQPGGSLRLSCAASGFTFSSYAMSWVRQAPGKGLEWVSTINSGTDSPYYADSVKGRFTISRDNSKNTLYLQMNSLRAEDTAVYYCAKNFFDGSWFLGPPAMDYWGQGTLVTVSSHHHHHH |
